{"source": "paper PMC10501769", "about": "(eLife, 2023)", "proteins": {"B1": {"name": "His-tagged Rv0158 protein of Mycobacterium tuberculosis H37Rv (natural protein)", "chain": "MPSDTSPNGLSRREELLAVATKLFAARGYHGTRMDDVADVIGLNKATVYHYYASKSLILFDIYRQAAEGTLAAVHDDPSWTAREALYQYTVRLLTAIASNPERAAVYFQEQPYITEWFTSEQVAEVREKEQQVYEHVHGLIDRGIASGEFYECDSHVVALGYIGMTLGSYRWLRPSGRRTAKEIAAEFSTALLRGLIRDESIRNQSPLGTRKET", "notes": "also called Histidine-tagged Rv0158; hexahistidine-tagged Rv0158 protein"}}, "target": "the molecule itself", "assay": "SEC", "data": [{"protein": "B1", "values": [{"measurement": "stoichiometry N", "result": 2}]}]}
